For 83 variants, reverse-splicing fitness results are on record in the RNAGym collection of RNA variant scans (doi:10.1093/molbev/msab373).

The labels stand for the following.
B1: Azoarcus group I ribozyme (parent)
chain: GUGCCUUGCGCCGGGAAACCACGCAAGGGAUGGUGUCAAAUUCGGCGAAACCUAAGCGCCCGCCCGGGCGUAUGGCAACGCCGAGCCAAGCUUCGGCGCCUGCGCCGAUGAAGGUGUAGAGACUAGACGGCACCCACCUAAGGCAAACGCUAUGGUGAAGGCAUAGUCCAGGGAGUGGCGAAAGUCACACAAACCGG

In the series the parent is B1. Put plainly: reverse-splicing fitness (ratio to wild type); higher = more active; in vitro selection; Mg2+ level not given. The gist of the method:
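An in vitro group I ribozyme library with randomized positions was T7-transcribed and gel-purified. In triplicate, 10 pmol RNA in EPPS pH 7.5 was reacted with 50 pmoles of a 30-nt RNA substrate for 1 h at 37 °C across several added MgCl2 levels (1–48 mM), then stopped with EDTA. Products were reverse transcribed from a substrate-complementary primer, PCR-amplified and sequenced (HiSeq 4000). Fitness is a variant's read proportion after selection over that before, normalised to wild type.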
As for C82U A111G A120U A145C C150A C169A U176G, the reverse-splicing fitness was found to be 0.00186.
Consider C82U A111G A120U A145C C150A C169A U176A, for which the reverse-splicing fitness stood at 0.00213.
For C82U A111G A120U A145C C150A C169A U176C, the reverse-splicing fitness was 0.00185.
The result for C82U A111G A120U C150U C169A U176A reads 0.00365; that for C82U A111G A120U C150U C169A U176C, 0.00318; that for C82U A111G A120U C150U C169A U176G, 0.00203.
Under C82U A111G A120U A145G U176G stands 0.00369.
Regarding C82U A111G A120U A145G U176A, the reverse-splicing fitness turned out to be 0.0106.
In the case of C82U A111G A120U A145G U176C, the reverse-splicing fitness is 0.0172.
The result for C82U A111G A120U A145G C150A U176G reads 0.00267; that for C82U A111G A120U A145G C150A U176A, 0.00588.
The result for C82U A111G A120U A145G C150A U176C reads 0.00749; that for C82U A111G A120U A145G C150A C169A, 0.00559.
With C82U A111G A120U A145G C150A C169U, the reverse-splicing fitness stood at 0.00348.
Consider C82U A111G A120U A145G C150A C169G, for which the reverse-splicing fitness worked out at 0.00549.
As for C82U A111G A120U A145G C150A C169U U176C, the reverse-splicing fitness was found to be 0.00341.
Under C82U A111G A120U A145G C150A C169U U176G stands 0.00215; under C82U A111G A120U A145G C150A C169U U176A, 0.00427.
With C82U A111G A120U U176G, the reverse-splicing fitness came out at 0.00489.
Take C82U A111G A120U U176C: the reverse-splicing fitness worked out at 0.0192.
The result for C82U A111G A120U U176A reads 0.011.
Turning to C82U A111G A120U C150G C169A U176A, the reverse-splicing fitness is 0.00509.
On to C82U A111G A120U C150G C169A U176C, for which the reverse-splicing fitness was 0.00364.
For the variant C82U A111G A120U C150G C169A U176G, the reverse-splicing fitness came to 0.00235.
For C82U A111G A145C C150U C169A, the reverse-splicing fitness was 0.00735.
Regarding C82U A111G A120U C150U C169U, the reverse-splicing fitness turned out to be 0.00388.
Consider C82U A111G A120U C150U C169G, for which the reverse-splicing fitness came to 0.00459.
For the variant C82U A111G A120U C150U C169A, the reverse-splicing fitness was determined as 0.00334.
With C82U A111G A120G C169G U176A, the reverse-splicing fitness stood at 0.0186.
The result for C82U A111G A120G C169G U176G reads 0.00369.
The result for C82U A111G A120G C169G U176C reads 0.0247.
In the case of C82U A111G A120U A145G C150U C169U U176C, the reverse-splicing fitness came to 0.00348.
The result for C82U A111G A120U A145G C150U C169U U176G reads 0.00238.
Under C82U A111G A120U A145G C150U C169U U176A stands 0.00391; under C82U A111G A120U A145U C169G U176G, 0.00135.
Regarding C82U A111G A120U A145U C169G U176A, the reverse-splicing fitness was found to be 0.00205.
In the case of C82U A111G A120U A145U C169G U176C, the reverse-splicing fitness came out at 0.00255.
C82U A111G A120U C150U: the reverse-splicing fitness is 0.0236.
For C82U A111G A120U C150A, the reverse-splicing fitness came to 0.00814.
With C82U A111G A120U C150G, the reverse-splicing fitness turned out to be 0.00763.
For the variant C82U A111G A120U A145U C150U C169A U176C, the reverse-splicing fitness amounted to 0.0023.
As for C82U A111G A120U A145U C150U C169A U176A, the reverse-splicing fitness amounted to 0.00289.
C82U A111G A120U A145U C150U C169A U176G: the reverse-splicing fitness was 0.00165.
Take C82U A111G A120U A145C C150U U176A: the reverse-splicing fitness was found to be 0.00377.
As to C82U A111G A120U A145C C150U U176C, the reverse-splicing fitness came to 0.00518.
With C82U A111G A120U A145C C150U U176G, the reverse-splicing fitness came out at 0.00212.
In the case of C82U A111G A120G C150U U176C, the reverse-splicing fitness was 0.0156.
The result for C82U A111G A120G C150U U176G reads 0.00506.
C82U A111G A120G C150U U176A: the reverse-splicing fitness was determined as 0.00985.
Regarding C82U A111G A145C, the reverse-splicing fitness turned out to be 0.406.
The result for C82U A111G A120U A145G C150U C169G U176G reads 0.00189; that for C82U A111G A120U A145G C150U C169G U176A, 0.00913; that for C82U A111G A120U A145G C150U C169G U176C, 0.00432.
As to C82U A111G A120U A145U C150G U176G, the reverse-splicing fitness amounted to 0.00254.
For the variant C82U A111G A120U A145U C150G U176A, the reverse-splicing fitness is 0.00344.
Regarding C82U A111G A120U A145U C150G U176C, the reverse-splicing fitness is 0.00492.
As for C82U A111G A120U A145U C150A C169U U176G, the reverse-splicing fitness came out at 0.00158.
On to C82U A111G A120U A145U C150A C169U U176A, for which the reverse-splicing fitness is 0.00278.
With C82U A111G A120U A145U C150A C169U U176C, the reverse-splicing fitness worked out at 0.00216.
For the variant C82U A111G A120U A145U C150U C169G U176C, the reverse-splicing fitness is 0.00294.
Consider C82U A111G A120U A145U C150U C169G U176A, for which the reverse-splicing fitness was 0.0026.
For C82U A111G A120U A145U C150U C169G U176G, the reverse-splicing fitness is 0.00172.
Take C82U A111G A120U A145C C169G U176A: the reverse-splicing fitness came to 0.00218.
Under C82U A111G A120U A145C C169G U176C stands 0.0021.
In the case of C82U A111G A120U A145C C169G U176G, the reverse-splicing fitness is 0.00126.
Under C82U A111G A120U A145G C150A C169A U176A stands 0.00624; under C82U A111G A120U A145G C150A C169A U176G, 0.00258; under C82U A111G A120U A145G C150A C169A U176C, 0.00365.
On to C82U A111G A120U A145C C150A C169A, for which the reverse-splicing fitness came to 0.00199.
The result for C82U A111G A120U A145C C150A C169U reads 0.00217; that for C82U A111G A120U A145C C150A C169G, 0.00197; that for C82U A111G A120G C169U U176A, 0.023.
C82U A111G A120G C169U U176C: the reverse-splicing fitness came to 0.0174.
For C82U A111G A120G C169U U176G, the reverse-splicing fitness was found to be 0.00533.
C82U A111G A120U A145U C150G C169U U176A: the reverse-splicing fitness worked out at 0.00271.
Take C82U A111G A120U A145U C150G C169U U176C: the reverse-splicing fitness came to 0.00227.
In the case of C82U A111G A120U A145U C150G C169U U176G, the reverse-splicing fitness is 0.00213.
Under C82U A111G A120U A145C C169A stands 0.00224; under C82U A111G A120U A145C C169U, 0.00379.
As to C82U A111G A120U A145C C169G, the reverse-splicing fitness came out at 0.00247.
On to C82U A111G A120U C150A C169G U176C, for which the reverse-splicing fitness came out at 0.00439.
As to C82U A111G A120U C150A C169G U176A, the reverse-splicing fitness amounted to 0.0073.
Regarding C82U A111G A120U C150A C169G U176G, the reverse-splicing fitness was 0.00213.
